No end group written: not given here.
Assays:
[1] = molecular target: soluble human insulin receptor-immunoglobulin heavy chain chimera (human) (UniProt P06213); experiment: phage ELISA
[2] = molecular target: Insulin receptor prepared according to Bass et al., 1996 (soluble IR-immunoglobulin chimera) (human) (UniProt P06213); experiment: phage ELISA, receptor coated on plate; A405 over non-fat milk
[3] = molecular target: Insulin receptor prepared according to Bass et al., 1996 (soluble IR-immunoglobulin chimera) (human) (UniProt P06213); experiment: phage ELISA; IR ratio divided by IGF-1R ratio
[4] = molecular target: soluble human insulin receptor-immunoglobulin heavy chain chimera (human), P06213; experiment: phage ELISA
[5] = molecular target: soluble IGF-1R (recombinant human IGF-1R extracellular domain, R&D Systems Cat. # 391-GR/CF) (human), P08069; experiment: phage ELISA
[6] = molecular target: His-tagged soluble recombinant human IGF-1R (human), P08069; experiment: AlphaScreen competition versus IGF-1 (b-hIGF-1, srhIGF-1R-his)

Row | Binder | IR/IGF-1R ratio comparison [1] | ratio over background [1] | further results
1 | YRGMLVLGRISGGAGKAASERPARIGQKVSAVNFYDWFV [A6L-0-E3-IR] | 0.1 | 2 | –
2 | AGSVTSFYDAMEQLVATGTSA [20E2A-3-A4-IGFR] | – | – | ratio over background (IR) (fold over background) [2]: 1.8; IR/IGF-1R ratio comparison [3]: 0.7
3 | CCTTEMVVMDARDDPFYHKLSELVTGG [B6Hα-1-B5-IR] | 0 | 1 | –
4 | VVTPVNFYRALEALVRGXRLG (not fully specified; printed as VVTPVNFYRALEALVRG.RLG; X: residue not identified in the source) [20E2B-2-B11-IGFR] | – | – | IR/IGF-1R ratio comparison [4]: 0.1; ratio over background [4]: 1.1; IGF-1R/IR ratio comparison [5]: 9.4; ratio over background [5]: 10.6
5 | TFYSCLASLLTGTPQPNRGPWERCRKK (modifications not checked) [RP6KK] | – | – | Affin. [6]: 0.19 µM
6 | RGAVAGFHDQFYDWFDRQVSRVHKFG [H2CA-4-H9-IGFR] | 0.3 | 1.9 | –

Now from value to binder, other results behind:

Row | IR/IGF-1R ratio comparison [1] | ratio over background [1] | Binder | further results
7 | 0.3 | 1.9 | SQAGSAFYAWFDQVLRTVHSA [20E2Bβ-4-G6-IR] | –
8 | 0.1 | 1.9 | QPDHSYFYSLLQELVGSEERL [20E2B-4-F9-IGFR] | –

From patent US20040023887A1
